A word on the Km: it is the substrate concentration at which the rate is half of its maximum. By kcat is commonly meant the number of substrate molecules converted per active site and unit of time at saturation. As usually defined, the kcat/Km is the turnover number divided by the Michaelis constant. The Kd is a measure of binding affinity in units of concentration. High values mean weaker binding, low ones tighter binding.

The subject of one series is NC(Cc1cccc(F)c1)C(=O)O. The series can be described thus: adenylation saturation kinetics. It is filed as biochemical, Aneurinibacillus migulanus. Conditions: ATP A-domain binding pocket enlarged by W239S.
In the next series the test system is NC(Cc1ccccc1F)C(=O)O. The series can be described thus: adenylation saturation kinetics. It is filed as biochemical, Aneurinibacillus migulanus. The note with it: ATP A-domain binding pocket enlarged by W239S.
In the next series the target is T1, GrsA (Aneurinibacillus migulanus, UniProt P0C061).
T1 sequence (P0C061 1-428 limits assumed): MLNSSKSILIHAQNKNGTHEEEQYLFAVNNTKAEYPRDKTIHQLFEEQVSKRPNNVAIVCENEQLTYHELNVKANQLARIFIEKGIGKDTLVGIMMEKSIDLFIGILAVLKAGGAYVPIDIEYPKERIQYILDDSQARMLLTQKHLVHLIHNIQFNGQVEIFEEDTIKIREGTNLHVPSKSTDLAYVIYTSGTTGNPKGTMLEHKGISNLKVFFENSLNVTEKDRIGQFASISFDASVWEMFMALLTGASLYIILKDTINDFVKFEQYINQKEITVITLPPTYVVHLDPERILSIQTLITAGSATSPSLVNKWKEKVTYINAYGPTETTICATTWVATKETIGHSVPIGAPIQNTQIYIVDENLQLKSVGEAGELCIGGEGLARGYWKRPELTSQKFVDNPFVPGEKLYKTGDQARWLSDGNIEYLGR
The series can be described thus: isothermal titration calorimetry. It is filed as binding.

Substrate in series [1]: CC(C)(F)C(N)C(=O)O
The series can be described thus: adenylation saturation kinetics. The class given is biochemical, Bacillus subtilis. Conditions: ATP.

Substrate in series [2]: CC(C)C(N)C(=O)O
The series can be described thus: adenylation saturation kinetics. It is filed as biochemical, Bacillus subtilis. Conditions: ATP.

Substrate in series [3]: NC(Cc1cc(F)cc(F)c1)C(=O)O
The series can be described thus: adenylation saturation kinetics. The class given is biochemical, Aneurinibacillus migulanus. Conditions: ATP A-domain binding pocket; T-shaped aromatic interaction with Trp239.

Substrate in series [4]: NC(Cc1cccc(F)c1)C(=O)O
The series can be described thus: adenylation saturation kinetics. The class given is biochemical, Aneurinibacillus migulanus. The note with it: ATP A-domain binding pocket; T-shaped aromatic interaction with Trp239.

Substrate in series [5]: NC(Cc1ccccc1F)C(=O)O
The series can be described thus: adenylation saturation kinetics. It is filed as biochemical, Aneurinibacillus migulanus. The note with it: ATP A-domain binding pocket; T-shaped aromatic interaction with Trp239.

With “GrsA-W239S (Aneurinibacillus migulanus; W239S)”, in the series on NC(Cc1cccc(F)c1)C(=O)O, the Km was 900 ± 100 µM, the kcat was 0.233 ± 0.0167 s⁻¹ and the kcat/Km came out at 250 M⁻¹ s⁻¹. For the same molecule, in the series on NC(Cc1ccccc1F)C(=O)O, the Km turned out to be 3000 ± 1000 µM, the kcat worked out at 0.667 ± 0.167 s⁻¹ and the kcat/Km turned out to be 267 M⁻¹ s⁻¹.
The molecule `NC(Cc1ccccc1)C(=O)O` (racemic) [Phe] returned a Kd on GrsA of 60 ± 10 µM.

B1: SrfA-B1 (Bacillus subtilis subsp. subtilis str. 168) (protein)
chain: ASTAVVYEGTKLTYRELNAAANRLARKLVEHGLQKGETAAIMNDRSVETVVGMLAVLKAGAAYVPLDPALPGDRLRFMAEDSSVRMVLIGNSYTGQAHQLQVPVLTLDIGFEESEAADNLNLPSAPSDLAYIMYTSGSTGKPKGVMIEHKSILRLVKNAGYVPVTEEDRMAQTGAVSFDAGTFEVFGALLNGAALYPVKKETLLDAKQFAAFLREQSITTMWLTSPLFNQLAAKDAGMFGTLRHLIIGGDALVPHIVSKVKQASPSLSLWNGYGPTENTTFSTSFLIDREYGGSIPIGKPIGNSTAYIMDEQQCLQPIGAPGELCVGGIGVARGYVNLPELTEKQFLEDPFRPGERIYRTGDLARWLPDGNIEFLGRIDNQVKVRGFRIELGEIETKLNMAEHVTEAAVIIRKNKADENEICAYFTADREVAVSELRKTLSQSLPDYMVPAHLIQMDSLPLTPNGKINKKELPAPQSEAVQ
Take B1: in series [1], the Km was 8000 ± 1000 µM, the kcat came to 0.467 ± 0.05 s⁻¹ and the kcat/Km came out at 58.3 M⁻¹ s⁻¹. In addition, in series [2], the Km came to 60 ± 20 µM, the catalytic constant (kcat) was determined as 0.133 ± 0.0333 s⁻¹ and the specificity constant (kcat/Km) was found to be 2330 M⁻¹ s⁻¹.

B2: GrsA (Aneurinibacillus migulanus) (protein)
chain: MLNSSKSILIHAQNKNGTHEEEQYLFAVNNTKAEYPRDKTIHQLFEEQVSKRPNNVAIVCENEQLTYHELNVKANQLARIFIEKGIGKDTLVGIMMEKSIDLFIGILAVLKAGGAYVPIDIEYPKERIQYILDDSQARMLLTQKHLVHLIHNIQFNGQVEIFEEDTIKIREGTNLHVPSKSTDLAYVIYTSGTTGNPKGTMLEHKGISNLKVFFENSLNVTEKDRIGQFASISFDASVWEMFMALLTGASLYIILKDTINDFVKFEQYINQKEITVITLPPTYVVHLDPERILSIQTLITAGSATSPSLVNKWKEKVTYINAYGPTETTICATTWVATKETIGHSVPIGAPIQNTQIYIVDENLQLKSVGEAGELCIGGEGLARGYWKRPELTSQKFVDNPFVPGEKLYKTGDQARWLSDGNIEYLGRIDNQVKIRGHRVELEEVESILLKHMYISETAVSVHKDHQEQPYLCAYFVSEKHIPLEQLRQFSSEELPTYMIPSYFIQLDKMPLTSNGKIDRKQLPEPDLTFGMRVDYEAPRNEIEETLVTIWQDVLGIEKIGIKDNFYALGGDSIKAIQVAARLHSYQLKLETKDLLKYPTIDQLVHYIKDSKRRSEQGIVEGEIGLTPIQHWFFEQQFTNMHHWNQSYMLYRPNGFDKEILLRVFNKIVEHHDALRMIYKHHNGKIVQINRGLEGTLFDFYTFDLTANDNEQQVICEESARLQNSINLEVGPLVKIALFHTQNGDHLFMAIHHLVVDGISWRILFEDLATAYEQAMHQQTIALPEKTDSFKDWSIELEKYANSELFLEEAEYWHHLNYYTENVQIKKDYVTMNNKQKNIRYVGMELTIEETEKLLKNVNKAYRTEINDILLTALGFALKEWADIDKIVINLEGHGREEILEQMNIARTVGWFTSQYPVVLDMQKSDDLSYQIKLMKENLRRIPNKGIGYEIFKYLTTEYLRPVLPFTLKPEINFNYLGQFDTDVKTELFTRSPYSMGNSLGPDGKNNLSPEGESYFVLNINGFIEEGKLHITFSYNEQQYKEDTIQQLSRSYKQHLLAIIEHCVQKEDTELTPSDFSFKELELEEMDDIFDLLADSLT
For B2, in series [3], the Km worked out at 14 ± 3 µM, the kcat was found to be 0.517 ± 0.0333 s⁻¹ and the kcat/Km came out at 36700 M⁻¹ s⁻¹. In series [4], the Km stood at 14 ± 5 µM, the kcat is 0.35 ± 0.0333 s⁻¹ and the kcat/Km worked out at 25000 M⁻¹ s⁻¹. For the same molecule, in series [5], the Km came out at 20 ± 2 µM, the kcat stood at 0.458 ± 0.0133 s⁻¹ and the kcat/Km amounted to 23300 M⁻¹ s⁻¹.

These data come from paper PMC10467612 (RSC Chemical Biology, 2023).
